The results in this text go back to PMC11154664, “Characterization of Complex Proteoform Mixtures by Online Nanoflow Ion-Exchange Chromatography-Native Mass Spectrometry” (Analytical Chemistry, 2024).

This data set deals with the molecule itself. The data set can be described thus: native MS; online nanoflow strong cation exchange chromatography coupled to nESI native MS (nanoSCX-nMS); salt-mediated pH gradient from 50 mM ammonium acetate pH 5.0 to 250 mM ammonium acetate pH 8.5.

B1: alcohol dehydrogenase (enzyme, UniProt P00330 1-348, looked up)
chain: MSIPETQKGVIFYESHGKLEYKDIPVPKPKANELLINVKYSGVCHTDLHAWHGDWPLPVKLPLVGGHEGAGVVVGMGENVKGWKIGDYAGIKWLNGSCMACEYCELGNESNCPHADLSGYTHDGSFQQYATADAVQAAHIPQGTDLAQVAPILCAGITVYKALKSANLMAGHWVAISGAAGGLGSLAVQYAKAMGYRVLGIDGGEGKEELFRSIGGEVFIDFTKEKDIVGAVLKATDGGAHGVINVSVSEAAIEASTRYVRANGTTVLVGMPAGAKCCSDVFNQVVKSISIVGSYVGNRADTREALDFFARGLVKSPIKVVGLSTLPEIYEKMEKGQIVGRYVVDTSK
notes: alcohol dehydrogenase (ADH), model oligomeric protein called a tetramer; also called ADH
On to B1, for which the “stoichiometry N” value was 4.
